The values that follow come from publication PMC10193013, “Nonstructural N- and C-tails of Dbp2 confer the protein full helicase activities” (The Journal of Biological Chemistry, 2023).

Data set [1] deals with T1, Dbp2 (full-length, Dbp2^1-546) (Saccharomyces cerevisiae, UniProt P24783, C168A/C206A/C219A).
T1 construct: full-length 1-546; E. coli C2566H; His6-MBP tag cleaved with TEV, SP ion exchange; the smFRET mutant C141/C373 carries a C-terminal His6 tag
The format is binding. As to conditions: labelled protein immobilised via C-terminal His-tag antibody; no RNA; MgCl2 2 mM, pH 7.5.

Data set [2] addresses T2, Dbp2 (full-length, Dbp2^1-546) (Saccharomyces cerevisiae, UniProt P24783).
T2 construct: full-length 1-546; E. coli C2566H; His6-MBP tag cleaved with TEV, SP ion exchange; the smFRET mutant C141/C373 carries a C-terminal His6 tag
In words: coupled spectrophotometric ATPase assay. In kind it is biochemical. The following applies: RNA-dependent: ssRNA R-S22 or RNA/DNA duplex R/D-D16; MgCl2 2 mM, ATP 1.5 mM, pH 7.5, 24 °C; turnover only.

Data set [3] concerns the target T3, Dbp2 (full-length, Dbp2^1-546) (Saccharomyces cerevisiae, UniProt P24783, R495A/R496A).
T3 construct: full-length 1-546; E. coli C2566H; His6-MBP tag cleaved with TEV, SP ion exchange; the smFRET mutant C141/C373 carries a C-terminal His6 tag
In words: ATPase activity assay kit (free phosphate, […] nm). The format is biochemical. The following applies: 16 bp RNA/DNA duplex 0.75 μM; MgCl2 2 mM, ATP 1.5 mM, pH 7.5, 24 °C; turnover only.

A further data set has as its target Dbp2 WT (Saccharomyces cerevisiae, UniProt P24783 1-546). In words: fluorescence anisotropy; Anisotropy: 25 mM Tris-HCl pH 7.5, 20 mM NaCl/30 mM KCl, 2 mM MgCl2, 1 mM DTT, 5 nM labelled nucleic acid, 25 C, 5 min; EMSA: 25 mM Tris-HCl pH 7.5, 30 mM KCl. The following applies: protein: recombinant, tags: His6-MBP removed by TEV. Background: In fluorescence polarisation assays a small probe gives low polarisation when free and higher when bound to something large.

The target in a further data set is Dbp2 53-546 (Saccharomyces cerevisiae, UniProt P24783 53-546). Described as above. The following applies: protein: recombinant; tags: His6-MBP removed by TEV; label: 3' FAM; G4.
Dbp2 53-546, sequence (P24783 53-546): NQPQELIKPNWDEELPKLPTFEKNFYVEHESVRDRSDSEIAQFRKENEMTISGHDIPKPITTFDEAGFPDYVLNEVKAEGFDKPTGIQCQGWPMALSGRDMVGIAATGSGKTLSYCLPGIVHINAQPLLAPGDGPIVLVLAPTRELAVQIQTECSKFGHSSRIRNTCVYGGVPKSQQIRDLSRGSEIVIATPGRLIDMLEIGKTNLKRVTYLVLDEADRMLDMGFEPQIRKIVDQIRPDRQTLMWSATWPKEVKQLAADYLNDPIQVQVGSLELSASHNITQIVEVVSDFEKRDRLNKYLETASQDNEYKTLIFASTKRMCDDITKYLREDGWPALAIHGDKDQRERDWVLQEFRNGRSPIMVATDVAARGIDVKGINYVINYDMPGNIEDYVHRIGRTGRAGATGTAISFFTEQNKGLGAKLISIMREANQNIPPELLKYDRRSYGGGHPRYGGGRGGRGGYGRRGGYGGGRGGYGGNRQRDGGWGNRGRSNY
The target in a further data set is T4, MBP-Dbp2 1-52 (Saccharomyces cerevisiae, UniProt P24783 1-52).
T4 sequence: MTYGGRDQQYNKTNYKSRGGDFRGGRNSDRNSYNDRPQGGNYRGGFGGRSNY
The description is as above. The following applies: protein: recombinant; tags: MBP fusion; label: 3' FAM; G4.

The next data set deals with T5, MBP-Dbp2 497-546 (Saccharomyces cerevisiae, UniProt P24783 497-546).
T5 chain: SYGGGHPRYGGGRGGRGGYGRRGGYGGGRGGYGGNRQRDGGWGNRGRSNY
Described as above. As to conditions: protein: recombinant; tags: MBP fusion; label: 3' FAM; G4.

In the next data set the target is Dbp2 53-496 (Saccharomyces cerevisiae, UniProt P24783 53-496). The description is as above. The following applies: protein: recombinant, tags: His6-MBP removed by TEV, label: 3' FAM.
Dbp2 53-496, sequence (P24783 53-496): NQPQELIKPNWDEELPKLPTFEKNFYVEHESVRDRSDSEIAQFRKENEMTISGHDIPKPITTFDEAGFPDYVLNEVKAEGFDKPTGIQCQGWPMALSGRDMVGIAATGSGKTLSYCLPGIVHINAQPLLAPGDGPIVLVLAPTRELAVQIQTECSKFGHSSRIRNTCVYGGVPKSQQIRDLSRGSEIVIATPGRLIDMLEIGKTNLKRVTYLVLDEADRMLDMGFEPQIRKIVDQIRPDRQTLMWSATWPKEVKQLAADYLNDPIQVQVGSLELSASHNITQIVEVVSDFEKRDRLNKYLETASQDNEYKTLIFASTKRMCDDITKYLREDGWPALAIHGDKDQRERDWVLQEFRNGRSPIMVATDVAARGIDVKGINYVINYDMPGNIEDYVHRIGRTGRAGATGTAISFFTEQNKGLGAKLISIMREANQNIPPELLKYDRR
The target of another data set is Dbp2 1-530 (Saccharomyces cerevisiae, UniProt P24783 1-530). The data set is described as above. As to conditions: protein: recombinant, tags: His6-MBP removed by TEV, label: 3' FAM.
In the next data set the target is Dbp2 1-524 (Saccharomyces cerevisiae, UniProt P24783 1-524). Described as above. As to conditions: protein: recombinant, tags: His6-MBP removed by TEV, label: 3' FAM.
The next data set has as its target Dbp2 118-466 (Saccharomyces cerevisiae, UniProt P24783 118-466). The description is as above. The following applies: protein: recombinant, label: 3' FAM.
A further data set concerns the target Dbp2 1-514 (Saccharomyces cerevisiae, UniProt P24783 1-514). The data set is described as above. The following applies: protein: recombinant, tags: His6-MBP removed by TEV, label: 3' FAM.
Where [4] appears, read: label: 3' FAM on DNA strand, blunt.

Where “and” joins values, the source holds several entries; their conditions need not be identical. Identical values can stand only once.

Dbp2 WT, sequence (P24783 whole entry): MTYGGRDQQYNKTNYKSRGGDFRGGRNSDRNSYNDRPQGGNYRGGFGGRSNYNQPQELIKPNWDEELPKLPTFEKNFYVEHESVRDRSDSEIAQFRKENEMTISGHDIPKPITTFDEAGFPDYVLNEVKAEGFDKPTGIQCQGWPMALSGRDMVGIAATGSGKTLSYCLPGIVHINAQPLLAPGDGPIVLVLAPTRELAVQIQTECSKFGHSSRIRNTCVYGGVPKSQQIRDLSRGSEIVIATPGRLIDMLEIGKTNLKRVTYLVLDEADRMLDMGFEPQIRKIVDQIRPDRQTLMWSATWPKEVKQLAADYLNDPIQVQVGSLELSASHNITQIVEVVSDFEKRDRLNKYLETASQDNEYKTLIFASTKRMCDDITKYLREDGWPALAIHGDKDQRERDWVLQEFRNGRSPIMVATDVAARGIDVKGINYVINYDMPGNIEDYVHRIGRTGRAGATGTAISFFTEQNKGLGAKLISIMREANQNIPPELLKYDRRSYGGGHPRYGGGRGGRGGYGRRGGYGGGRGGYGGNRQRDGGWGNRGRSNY
Dbp2 118-466, sequence (P24783 118-466): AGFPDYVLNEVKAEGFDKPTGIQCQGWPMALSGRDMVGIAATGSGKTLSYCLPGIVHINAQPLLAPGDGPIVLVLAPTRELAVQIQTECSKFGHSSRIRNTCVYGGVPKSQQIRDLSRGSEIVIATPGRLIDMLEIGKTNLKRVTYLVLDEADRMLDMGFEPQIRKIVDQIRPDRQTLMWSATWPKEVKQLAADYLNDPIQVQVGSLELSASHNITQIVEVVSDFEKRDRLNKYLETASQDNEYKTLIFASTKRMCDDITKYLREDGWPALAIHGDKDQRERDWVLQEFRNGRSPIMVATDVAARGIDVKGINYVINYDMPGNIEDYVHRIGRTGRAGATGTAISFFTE
Dbp2 1-514, sequence (P24783 1-514): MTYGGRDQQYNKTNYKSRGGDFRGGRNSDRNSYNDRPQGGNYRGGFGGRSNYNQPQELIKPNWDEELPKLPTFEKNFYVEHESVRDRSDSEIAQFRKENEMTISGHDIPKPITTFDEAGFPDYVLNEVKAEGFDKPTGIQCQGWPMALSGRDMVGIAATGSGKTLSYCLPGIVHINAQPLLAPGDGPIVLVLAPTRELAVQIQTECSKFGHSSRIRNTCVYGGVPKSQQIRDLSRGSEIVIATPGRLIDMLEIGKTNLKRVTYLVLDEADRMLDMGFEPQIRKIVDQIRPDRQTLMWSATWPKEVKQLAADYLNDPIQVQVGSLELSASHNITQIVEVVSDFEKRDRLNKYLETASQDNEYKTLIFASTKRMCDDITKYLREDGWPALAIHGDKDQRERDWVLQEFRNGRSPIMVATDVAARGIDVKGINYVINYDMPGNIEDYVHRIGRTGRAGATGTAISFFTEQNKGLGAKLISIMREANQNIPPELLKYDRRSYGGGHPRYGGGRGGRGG
T1 sequence (P24783 whole entry C168A/C206A/C219A): as the sequence (P24783 whole entry) above, with C168A, C206A, C219A counted along it
T3 sequence (P24783 whole entry R495A/R496A): as the sequence (P24783 whole entry) above, with R495A, R496A counted along it

For `Nc1ncnc2c1ncn2[C@@H]1O[C@H](COP(=O)(O)OP(=O)(O)O)[C@@H](O)[C@H]1O` [ADP], the “single-molecule FRET, Cy3/Cy5 on C141 and C373” value in data set [1] is listed as “The FRET distribution of Dbp2-ADP was similar to that of Dbp2-ADP·AlF4 except for a decrease”.

Regarding `Nc1ncnc2c1ncn2[C@@H]1O[C@H](COP(=O)(O)OP(=O)(O)OP(=O)(O)O)[C@@H](O)[C@H]1O` [ATP], the “coupled spectrophotometric ATPase assay” value in data set [2] is on record as “The RNA-dependent ATPase activities of Dbp2 were measured using a coupled spectrophotometric ATPase assay”. Moreover, the “ATPase activity assay kit (free phosphate, 620 nm)” value in data set [3] is reported as “the R495A/R496A double mutant also showed increased ATPase activity in vitro”.

B1: D-D12 (dsDNA)
DNA 1: CGTCGAGCAGAG
DNA 2: CTCTGCTCGACG
A word on the Kd: it is a measure of binding affinity in units of concentration. As for B1, the Kd in the data set with Dbp2 WT (label: 3' FAM on strand 2, blunt) is 178 ± 6.2 nM.

B2: R/D-D16 (DNA:RNA)
RNA: GAUCGUGACAUCCUUA
DNA: TAAGGATGTCACGATC
On to B2, for which the Kd in the data set with Dbp2 WT (setting [4]) came out at 40.6 ± 4.65 nM.

B3: R-G4Tel (structured_RNA)
RNA: GGGUUAGGGUUAGGGUUAGGG
Consider B3, for which the Kd in the data set with Dbp2 53-546 is 18.8 ± 0.56 nM; with MBP-Dbp2 1-52, 26 ± 1.5 nM; in the data set with MBP-Dbp2 497-546 it was 36.3 ± 5.1 nM; with Dbp2 1-530 (G4) it was 19.2 ± 2.17 nM; with Dbp2 WT (label: 3' FAM, G4), 12.2 nM and 12.7 nM; with Dbp2 1-524 (G4) it was 27.9 ± 2.66 nM. For the same molecule, the Kd with Dbp2 1-514 (G4) turned out to be 63.5 ± 8.45 nM. Further, the binding result with Dbp2 53-496 (G4) and with Dbp2 118-466 (G4) was “no binding” each time.

B4: D-S12 (ssDNA)
DNA: ACGGATGTCTAA
On to B4, for which, in the data set with Dbp2 WT (label: 3' FAM), the Kd stood at 105 ± 1.9 nM.

B5: R-S22 (ssRNA)
RNA: UUUUUUUUUUCUCUGCUCGACG
On to B5, for which the binding result with Dbp2 53-496 and with Dbp2 118-466 was “no binding” in each case. In addition, the equilibrium dissociation constant (Kd) in the data set with Dbp2 1-530 was 33.7 ± 6.63 nM; in the data set with Dbp2 WT (label: 3' FAM) it was 15.8 ± 0.66 nM; with Dbp2 1-524 it was 38.8 ± 4.35 nM; with Dbp2 1-514, 214 ± 18.4 nM.

B6: R-S12 (ssRNA)
RNA: CUCUGCUCGACG
In the case of B6, the Kd with Dbp2 WT (label: 3' FAM) came out at 72.1 ± 5.09 nM.

B7: R/D-D12 (DNA:RNA)
RNA: CGUCGAGCAGAG
DNA: CTCTGCTCGACG
For the molecule B7, the Kd with Dbp2 WT (setting [4]) worked out at 73.9 ± 3.93 nM.
